From patent US20240117018A1

Tests used:
Assay in all cases: cell-based or functional assay
[1] = molecular target: HIV-1 Env of pseudovirus 6811.v7.c18 (HIV-1)
[2] = molecular target: HIV-1 Env of pseudovirus 191955_A11 (HIV-1)
[3] = molecular target: HIV-1 Env of pseudovirus 6480.v4.c25 (HIV-1)
[4] = molecular target: HIV-1 Env of pseudovirus 235-47 (HIV-1)
[5] = molecular target: HIV-1 Env of pseudovirus 928-28 (HIV-1)
[6] = molecular target: HIV-1 Env of pseudovirus BJOX015000.11.5 (HIV-1)
[7] = molecular target: HIV-1 Env of pseudovirus 3817.v2.c59 (HIV-1)
[8] = molecular target: HIV-1 Env of pseudovirus X1632_S2_B10 (HIV-1)

Substance | neutralization IC50 [1] [µg/mL] | neutralization IC80 [1] [µg/mL] | neutralization MPI [1] | neutralization IC50 [2] [µg/mL] | neutralization IC80 [2] [µg/mL] | neutralization MPI [2] | neutralization IC50 [3] [µg/mL] | neutralization IC80 [3] [µg/mL] | neutralization MPI [3] | neutralization IC50 [4] [µg/mL] | neutralization IC80 [4] [µg/mL] | neutralization MPI [4] | neutralization IC50 [5] [µg/mL] | neutralization IC80 [5] [µg/mL] | neutralization MPI [5] | neutralization IC50 [6] [µg/mL] | neutralization IC80 [6] [µg/mL] | neutralization MPI [6] | neutralization IC50 [7] [µg/mL] | neutralization IC80 [7] [µg/mL] | further results
N49P9 (antibody) | 0.249 | 1.2 | 99 | > 50 | > 50 | 35 | 0.017 | 0.047 | 100 | 0.072 | 0.271 | 98 | 0.094 | 0.339 | 100 | 0.089 | 0.375 | 100 | 1.09 | 5.86 | neutralization MPI [7]: 100; neutralization IC50 [8]: 46.7 µg/mL; neutralization IC80 [8]: > 50 µg/mL; neutralization MPI [8]: 51
N49P9.1 (antibody) | 0.398 | 1.76 | 97 | > 50 | > 50 | 26 | 0.03 | 0.082 | 100 | 0.045 | 0.352 | 98 | 0.163 | 0.695 | 100 | 0.068 | 0.478 | 100 | 1.35 | 8.26 | neutralization MPI [7]: 95; neutralization IC50 [8]: > 50 µg/mL; neutralization IC80 [8]: > 50 µg/mL; neutralization MPI [8]: 10
N49P19 (antibody) | 1.3 | 4.71 | 97 | > 50 | > 50 | 16 | 3.04 | 28.2 | 87 | 0.44 | 3.23 | 89 | 2.73 | 9.63 | 97 | 0.756 | 3.17 | 99 | > 50 | > 50 | neutralization MPI [7]: 26; neutralization IC50 [8]: > 50 µg/mL; neutralization IC80 [8]: > 50 µg/mL; neutralization MPI [8]: 14
PG9 (antibody) | – | – | – | – | – | – | – | – | – | – | – | – | – | – | – | – | – | – | – | – | IC50 neutralization (TZM.bl) [1]: > 50 µg/mL; IC80 neutralization (TZM.bl) [1]: > 50 µg/mL; IC50 neutralization (TZM.bl) [3]: > 50 µg/mL; IC80 neutralization (TZM.bl) [3]: > 50 µg/mL; IC50 neutralization (TZM.bl) [4]: 0.233 µg/mL; IC80 neutralization (TZM.bl) [4]: 1.2 µg/mL; IC50 neutralization (TZM.bl) [6]: 0.322 µg/mL; IC80 neutralization (TZM.bl) [6]: 1.49 µg/mL; IC50 neutralization (TZM.bl) [7]: 0.02 µg/mL; IC80 neutralization (TZM.bl) [7]: 0.062 µg/mL; IC50 neutralization (TZM.bl) [8]: 0.107 µg/mL; IC80 neutralization (TZM.bl) [8]: 0.934 µg/mL
PG16 (antibody) | – | – | – | – | – | – | – | – | – | – | – | – | – | – | – | – | – | – | – | – | IC50 neutralization (TZM.bl) [1]: > 50 µg/mL; IC80 neutralization (TZM.bl) [1]: > 50 µg/mL; IC50 neutralization (TZM.bl) [3]: > 50 µg/mL; IC80 neutralization (TZM.bl) [3]: > 50 µg/mL; IC50 neutralization (TZM.bl) [4]: 0.092 µg/mL; IC80 neutralization (TZM.bl) [4]: 4.51 µg/mL; IC50 neutralization (TZM.bl) [6]: 3.13 µg/mL; IC80 neutralization (TZM.bl) [6]: > 50 µg/mL; IC50 neutralization (TZM.bl) [7]: 0.008 µg/mL; IC80 neutralization (TZM.bl) [7]: 0.06 µg/mL; IC50 neutralization (TZM.bl) [8]: 0.012 µg/mL; IC80 neutralization (TZM.bl) [8]: 0.076 µg/mL
